Test results: article doi:10.1101/205575

Key:
[1] = system: FnCpf1 (Cas12a); assay: smFRET titration; conditions: amino-dT in non-target strand, pH 8.0 ([…]) or pH 7.0 ([…]
[2] = system: AsCpf1 (Cas12a) (Acidaminococcus sp.?); assay: smFRET titration; conditions: amino-dT in non-target strand, pH 8.0 ([…]) or pH 7.0 ([…]

“cognate DNA target (nPD=0) with Cy5 guide-RNA” was tested, and the Kd [1] was 0.27 nM and the Kd [2] was 0.1 nM.
